Laboratory results reported in IntAct's records for PubMed 17853893.

B1: Programmed cell death 6-interacting protein (Homo sapiens), Q8WUM4 (parent)
chain: MATFISVQLKKTSEVDLAKPLVKFIQQTYPSGGEEQAQYCRAAEELSKLRRAAVGRPLDKHEGALETLLRYYDQICSIEPKFPFSENQICLTFTWKDAFDKGSLFGGSVKLALASLGYEKSCVLFNCAALASQIAAEQNLDNDEGLKIAAKHYQFASGAFLHIKETVLSALSREPTVDISPDTVGTLSLIMLAQAQEVFFLKATRDKMKDAIIAKLANQAADYFGDAFKQCQYKDTLPKEVFPVLAAKHCIMQANAEYHQSILAKQQKKFGEEIARLQHAAELIKTVASRYDEYVNVKDFSDKINRALAAAKKDNDFIYHDRVPDLKDLDPIGKATLVKSTPVNVPISQKFTDLFEKMVPVSVQQSLAAYNQRKADLVNRSIAQMREATTLANGVLASLNLPAAIEDVSGDTVPQSILTKSRSVIEQGGIQTVDQLIKELPELLQRNREILDESLRLLDEEEATDNDLRAKFKERWQRTPSNELYKPLRAEGTNFRTVLDKAVQADGQVKECYQSHRDTIVLLCKPEPELNAAIPSANPAKTMQGSEVVNVLKSLLSNLDEVKKEREGLENDLKSVNFDMTSKFLTALAQDGVINEEALSVTELDRVYGGLTTKVQESLKKQEGLLKNIQVSHQEFSKMKQSNNEANLREEVLKNLATAYDNFVELVANLKEGTKFYNELTEILVRFQNKCSDIVFARKTERDELLKDLQQSIAREPSAPSIPTPAYQSSPAGGHAPTPPTPAPRTMPPTKPQPPARPPPPVLPANRAPSATAPSPVGAGTAAPAPSQTPGSAPPPQAQGPPYPTYPGYPGYCQMPMPMGYNPYAYGQYNMPYPPVYHQSPGQAPYPGPQQPSYPFPQPPQQSYYPQQ
partner: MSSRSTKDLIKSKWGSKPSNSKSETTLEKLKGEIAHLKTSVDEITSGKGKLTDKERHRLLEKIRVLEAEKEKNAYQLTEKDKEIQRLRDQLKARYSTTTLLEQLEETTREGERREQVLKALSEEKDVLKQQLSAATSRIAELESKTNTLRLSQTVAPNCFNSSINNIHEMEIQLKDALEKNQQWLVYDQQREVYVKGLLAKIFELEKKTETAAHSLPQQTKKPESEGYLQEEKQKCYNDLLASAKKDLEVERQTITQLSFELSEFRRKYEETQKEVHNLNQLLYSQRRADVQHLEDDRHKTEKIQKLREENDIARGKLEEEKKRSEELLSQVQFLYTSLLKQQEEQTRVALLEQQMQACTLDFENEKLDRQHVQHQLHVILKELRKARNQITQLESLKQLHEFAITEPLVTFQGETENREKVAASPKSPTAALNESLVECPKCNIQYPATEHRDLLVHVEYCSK

Variants of: B1
Details: with cep55_human CEP55, Q53EZ4

Q: How did the “effect of a mutation on the interaction” value turn out when G800A;P801A;P802A was run?
A: disrupting interaction strength
